Experimental data published in PMC8635976, “Ca^2+/CaM binding to CaMKI promotes IMA-3 importin binding and nuclear translocation in sensory neurons to control behavioral adaptation” (eLife, 2021).
Substitutions are numbered along the chain they refer to. Numbers in names are those of the source.

Tests used:
Conditions in all cases: both partners purified
[1] = target: T1, IMA-3-His6 (IMA-3 importin-α) (C. elegans, UniProt Q19969 1-514, labeled using the RED-tris-NTA His tag protein labeling kit); test: MST; Monolith NT.115; RED-tris-NTA labeled IMA-3-His6 at 100 nM, serial dilution of unlabeled CMK-1 in 1x PBS with 0.05% Tween 20; 40% laser power; no Ca2+, no CaM; triplicates
T1 construct: IMA-3, importin-α of C. elegans; also called HisTag::IMA-3; source: E. coli BL21 (DE3), purified (Ni-NTA, desalting spin column)
T1 sequence (looked up): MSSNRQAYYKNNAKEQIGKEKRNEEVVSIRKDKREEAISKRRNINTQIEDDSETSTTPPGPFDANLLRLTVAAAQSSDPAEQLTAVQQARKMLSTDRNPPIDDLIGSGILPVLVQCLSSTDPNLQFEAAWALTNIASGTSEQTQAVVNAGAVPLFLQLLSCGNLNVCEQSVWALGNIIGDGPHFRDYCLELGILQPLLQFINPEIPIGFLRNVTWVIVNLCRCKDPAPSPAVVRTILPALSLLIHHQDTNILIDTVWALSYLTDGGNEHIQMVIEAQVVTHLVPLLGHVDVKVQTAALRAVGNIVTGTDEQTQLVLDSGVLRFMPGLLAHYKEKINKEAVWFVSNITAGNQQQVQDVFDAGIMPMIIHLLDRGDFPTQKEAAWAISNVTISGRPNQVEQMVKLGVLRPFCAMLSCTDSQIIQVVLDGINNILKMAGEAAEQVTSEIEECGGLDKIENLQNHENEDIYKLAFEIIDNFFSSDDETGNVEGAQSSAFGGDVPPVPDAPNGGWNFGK

[2] = target: T1, IMA-3-His6 (IMA-3 importin-α); test: MST; Monolith NT.115; RED-tris-NTA labeled IMA-3-His6 at 100 nM, serial dilution of unlabeled CMK-1 in 1x PBS with 0.05% Tween 20; 40% laser power; with 2 mM Ca2+, no CaM
[3] = target: T1, IMA-3-His6 (IMA-3 importin-α); test: MST; Monolith NT.115; RED-tris-NTA labeled IMA-3-His6 at 100 nM, serial dilution of unlabeled CMK-1 in 1x PBS with 0.05% Tween 20; 40% laser power; with 2 mM CaCl2 and 8 µM CaM; triplicates

B1: CMK-1(wt), calcium/calmodulin-dependent protein kinase-1 (enzyme, C. elegans, UniProt Q9TXJ0 1-348, looked up)
chain: MPLFKRRDGSGPAPNATIREKYDFRDVLGTGAFSKVFLAESKSDAGQMYAVKCIDKKALKGKEESLENEIKVLRKLRHNNIVQLFDTYDEKQFVYLVMELVTGGELFDRIVAKGSYTEQDASNLIRQVLEAVGFMHDNGVVHRDLKPENLLYYNQDEDSKIMISDFGLSKTEDSGVMATACGTPGYVAPEVLQQKPYGKAVDVWSIGVIAYILLCGYPPFYDESDANLFAQIIKGEYEFDAPYWDQISDSAKDFITHLMCCDPEARFTCQDALSHPWISGNTAYTHDIHGTVAVHLKKSLAKRNWKKAYNAAAAIRQLQMLRLSSNSNRLQKQASQQQPEPPTPAFHA
notes: CMK-1 of C. elegans, ortholog of mammalian CaMKI/IV; cmk-1 cds inserted in pDK2409 (plasmid dg922 [cmk-1(wt)::GST-TEV]); TEV cleavage removes the GST tag to recover untagged CMK-1; also called CaMKI; source: E. coli BL21 (DE3), purified (Glutathione beads, eluted by TEV cleavage)
In the case of B1, the Kd [1] is reported as 1540 nM, the Kd [2] is reported as 1140 nM and the Kd [3] is reported as 450 nM.

B2: CMK-1(K71A/R74Q/R77S) (enzyme, C. elegans, UniProt Q9TXJ0 1-348, looked up)
chain: B1 chain with K71A, R74Q, R77S
notes: CMK-1 of C. elegans with three point mutations in the NLS 71-78; plasmid dg929 [cmk-1(K71A/R74Q/R77S)::GST-TEV] made by site-directed mutagenesis from dg922; TEV cleavage removes the GST tag; also called NLS71-78 mutant CMK-1; CMK-1 (K71A/R74Q/R77S) triple mutant; source: E. coli BL21 (DE3), purified (Glutathione beads, eluted by TEV cleavage)
With B2 the Kd [1] was 1220 nM and the Kd [3] was 1000 nM.
